Results on 36 sequences are retold here after the supplement of paper PMC10567573.

± gives the standard deviation.

This data set can be described thus: protein stability index of a GFP-peptide fusion (GPS, HEK-293T) (PSI 1-6); higher = more stable. The following applies: c terminus: a fixed tail appended.
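Further: 24-mer peptide tiles fused after GFP, lentivirally expressed, FACS-sorted into six equal bins by GFP/DsRed ratio, decoded by Illumina sequencing, PSI is the read-weighted mean bin number.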

KGDKCKFSHDLTLERKCEKRSVYI [ZC3H15]: the protein stability index is 2.74 ± 0.22 (treatment: DMSO) and 2.63 ± 0.067 (treatment: MLN4924 1 uM, 8 h).

With RMLMKRLDVTVQSFGWSDRAKVKT [FAM98B], the protein stability index is, setting by setting: (treatment: DMSO) 2.48 ± 0.34; (treatment: MLN4924 1 uM, 8 h) 2.34 ± 0.34.

For the sequence EQPHGRSRRREQSSSRNSHLVQHQ [ZNF8], the protein stability index stood at 4.78 ± 0.23 (treatment: DMSO) and 4.76 ± 0.28 (treatment: MLN4924 1 uM, 8 h).

With YDITKEETFSTLKNWVKELRQHGP [RAB22A], the protein stability index by setting is: (treatment: DMSO) 2.85 ± 0.49; (treatment: MLN4924 1 uM, 8 h) 3.24 ± 0.16.

As to DEKQCKQCANKVLQHMKAVQADQE [LRRC59], the protein stability index is, setting by setting: (treatment: DMSO) 4.78 ± 0.19; (treatment: MLN4924 1 uM, 8 h) 4.63 ± 0.22.

Consider GGGPSATEWACILRRKTPRHKQPT [C6orf223], for which the protein stability index by setting is: (treatment: DMSO) 3.57 ± 0.12; (treatment: MLN4924 1 uM, 8 h) 3.72 ± 0.16.

Consider KIRDWYQRQAPGPARDYSQYYRTI [KRT17], for which the protein stability index (treatment: DMSO) worked out at 2.19 ± 0.37 and the protein stability index (treatment: MLN4924 1 uM, 8 h) came to 2.42 ± 0.31.

In the case of LLLLLLTFFLRTDAETPPRFTRTP [PTPRD], the protein stability index turned out to be 2.32 ± 0.43 (treatment: DMSO) and 2.36 ± 0.49 (treatment: MLN4924 1 uM, 8 h).

The sequence PSVIQEIHQESGKAPSTDDATWAA [C10orf62] gave a protein stability index (treatment: DMSO) of 4.29 ± 0.33 and a protein stability index (treatment: MLN4924 1 uM, 8 h) of 4.66 ± 0.34.

Take AYTRYLGDLSGGQVLKKIAQKALD [HMOX1]: the protein stability index by setting is: (treatment: DMSO) 2.29 ± 0.19; (treatment: MLN4924 1 uM, 8 h) 2.23 ± 0.34.

GWFWVCPGGGDICMYRHALPPGFV [ZC3H15] returned a protein stability index (treatment: DMSO) of 2.83 ± 2.2 and a protein stability index (treatment: MLN4924 1 uM, 8 h) of 2.57 ± 0.8.

Consider SVPMNGTSIQWKNHDQNNHNTDRS [EDNRA], for which the protein stability index reads like this: (treatment: DMSO) 4.5 ± 0.29; (treatment: MLN4924 1 uM, 8 h) 4.92 ± 0.24.

Consider DRDGTINLSEFQHVISRSPDFASS [CIB1], for which the protein stability index runs as follows: (treatment: DMSO) 4.31 ± 0.28; (treatment: MLN4924 1 uM, 8 h) 4.31 ± 0.24.

For the sequence DSMTSQAKPEALSSPKFREEAAFP [ELOA2], the protein stability index runs as follows: (treatment: DMSO) 4.9 ± 0.24; (treatment: MLN4924 1 uM, 8 h) 4.89 ± 0.13.

In the case of VLDLRKNSHQDFWTVWSGNRASLY [PRAME], the protein stability index is, setting by setting: (treatment: DMSO) 2.19 ± 0.3; (treatment: MLN4924 1 uM, 8 h) 2.3 ± 0.19.

Take LVEDMVSQEEAQGLPSSELDAVEN [ZNF24]: the protein stability index is, setting by setting: (treatment: DMSO) 5.5 ± 0.48; (treatment: MLN4924 1 uM, 8 h) 5.43 ± 0.15.

For RKSSKLIMELTGGGQESSGLNLGK [MYOZ1], the protein stability index is, setting by setting: (treatment: DMSO) 3.72 ± 0.082; (treatment: MLN4924 1 uM, 8 h) 3.98 ± 0.26.

For PIKLELLEPKANLQAALQVLELHH [VPS39], the protein stability index runs as follows: (treatment: DMSO) 2.36 ± 0.41; (treatment: MLN4924 1 uM, 8 h) 2.41 ± 0.22.

In the case of ENCLSASAAQTDPTTGYRRLLRFS [LOXL2], the protein stability index is 3.34 ± 0.36 (treatment: DMSO) and 3.35 ± 0.4 (treatment: MLN4924 1 uM, 8 h).

HELMLRFKDEYKSENIKLREENEK [CCDC89]: the protein stability index is, setting by setting: (treatment: DMSO) 5.21 ± 0.36; (treatment: MLN4924 1 uM, 8 h) 5.29 ± 0.13.

For the sequence NRDSSMKLSFRARAYGFRGPGPQL [CHGA], the protein stability index was 2.44 ± 0.28 (treatment: DMSO) and 2.47 ± 0.42 (treatment: MLN4924 1 uM, 8 h).

With LLPTKSLVALKCTCCYFKFIIEYY [FBXO34], the protein stability index amounted to 2.8 ± 0.59 (treatment: DMSO) and 2.83 ± 0.88 (treatment: MLN4924 1 uM, 8 h).

Regarding IWDINNQICTVKDIKAEPQPLSPA [ATF6], the protein stability index worked out at 3.96 ± 0.21 (treatment: DMSO) and 4.1 ± 0.24 (treatment: MLN4924 1 uM, 8 h).

KLSFRARAYGFRGPGPQLRRGWRP [CHGA]: the protein stability index amounted to 3.01 ± 0.2 (treatment: DMSO) and 3.08 ± 0.29 (treatment: MLN4924 1 uM, 8 h).

Turning to LEGLNLSILKAMGKTKKDYQEASN [NECAB1], the protein stability index (treatment: DMSO) is 3.78 ± 0.14 and the protein stability index (treatment: MLN4924 1 uM, 8 h) stood at 3.91 ± 0.22.

For the sequence APGVDLSRILNEMRDQYEQMAEKN [KRT16], the protein stability index came out at 4.27 ± 0.35 (treatment: DMSO) and 4.42 ± 0.16 (treatment: MLN4924 1 uM, 8 h).

As for GYQHVDLQNFSSSWSDGMAFCALV [SMTNL2], the protein stability index reads like this: (treatment: DMSO) 2.16 ± 0.49; (treatment: MLN4924 1 uM, 8 h) 2.01 ± 0.15.

Take QKPRGLEGGVLRGSKLEKGHLRGP [ZSWIM9]: the protein stability index worked out at 3.98 ± 0.63 (treatment: DMSO) and 3.82 ± 0.54 (treatment: MLN4924 1 uM, 8 h).

Consider MDIESLSVFTEPNRHFYREMQSFS [FBXO33], for which the protein stability index runs as follows: (treatment: DMSO) 2.39 ± 0.33; (treatment: MLN4924 1 uM, 8 h) 2.3 ± 0.24.

With IDFIGQVHKTKEQFGQDGPISVHC [PTPRD], the protein stability index by setting is: (treatment: DMSO) 2.5 ± 0.26; (treatment: MLN4924 1 uM, 8 h) 2.81 ± 0.22.

For the sequence NYQVFQKVTDHATTALLHYQLPQM [MED27], the protein stability index by setting is: (treatment: DMSO) 2.52 ± 0.21; (treatment: MLN4924 1 uM, 8 h) 2.25 ± 0.24.

As to NSLWKKNKTICKERLQILCFFLLI [NLN], the protein stability index is 2.9 ± 0.4 (treatment: DMSO) and 2.4 ± 0.42 (treatment: MLN4924 1 uM, 8 h).

With IVSNFNYFYHRETENEEQTQLTQN [KCNA4], the protein stability index runs as follows: (treatment: DMSO) 3.03 ± 0.12; (treatment: MLN4924 1 uM, 8 h) 3.38 ± 0.25.

Take VKEAPAPTPTSLEVSSPPDTTEEV [PDZK1]: the protein stability index was 5.57 ± 0.25 (treatment: DMSO) and 5.49 ± 0.3 (treatment: MLN4924 1 uM, 8 h).

As to VISVVSYLILALLSVTISFRIYKS [RTN3], the protein stability index runs as follows: (treatment: DMSO) 3.21 ± 0.65; (treatment: MLN4924 1 uM, 8 h) 2.8 ± 0.29.

For the sequence INCKGRSKSNLGWTPLHLACYFGH [OSBPL1A], the protein stability index reads like this: (treatment: DMSO) 2.63 ± 0.32; (treatment: MLN4924 1 uM, 8 h) 2.28 ± 0.32.
